Source: publication PMC8528075

Target: SARS-CoV-2 S2P spike (prefusion-stabilized trimer) (SARS-CoV-2 Wuhan-Hu-1)
Test: cryo-EM structure

Work on 2–36 Fab yielded a stoichiometry N (Fabs per spike) of 3.
